Measurements reported in the nanobody polyreactivity screen of Harvey et al. (2022).

Assay: yeast display, Sf9 membrane polyspecificity reagent, FACS + sequencing; frameworks hold sequencing errors
Outline: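 Using colony PCR, genes from sorted yeast display clones were amplified, then sequenced on MiSeq at 2 × 250 and filtered by CDR length. The clones had been stained with 10% biotinylated, detergent-solubilized Sf9 membrane reagent for 1 hour at 4 °C and sorted by FACS into low and high (top ~1%) gates on anti-HA and streptavidin fluorescence. Polyreactivity labels come from the gate of origin.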

Sequence | polyreactivity (PSR sort gate)
QVQLVDSGGGLVQAGGTHRLSCAASGFTFRRNAMGWYRQAPGKERELVAAITYNGGTSYYADSVKGRFSISRDNAKNTVYLQMNSLKPEETAVYYCAAVDSYSPYVSHDNWGQGTKVTVSS | low polyreactivity
QVQLVDSGGGLVQPGGSLRLRCAASGGIFLQNAMGWYRQAPGTERELVAAISWSAGSTYYADSVKGRFTISRDNAKNTVYLDMNCLKPEDTAVYYCAAAGSNFTVWYGYYYWGQGTQVTVSS | low polyreactivity
QVQLVDSGGGSVQAGGSLRLSCAASGRTFPYYAMGWYRQAPGKERELVAAITIGNTNYADSVKGRFTISRDNAKNTVYLQMNSLKPEDTAVYYCNASHVSHYRARDYWGQGTQVTVSS | low polyreactivity
QVQLVDSGGRLLQAGGSLRLSCAASGRTFYYYAKGWYRQAPGKERELVASITSDGDTNYADSVKGRFTISGDNAKNTGYLQMNSLKPEDTAVYYCAAEWQTQGYEYWGQGTQVTVSS | high polyreactivity
QVQLVDSGVGLVQAGGSLRLSCAASGRIFDYYAMGWYRQAPGKERELVAAITSGGTTTYYADSVKGRFTISRDNAKNTVYLQMNSLKPEDTAVYYCAASFFGDGYIDLWYKFDYWGQGTQVTVSS | low polyreactivity
QVQLVDSVGGLVQAGGSLRLSCAASGFTFWYYAMGWYRQAPGKERELVAAISSGGSTYYADSVKGRFTISRDNAKNTVYLQMNSLKPEDTAVYYCAARIGARGRGGKDRVYYWGQGTQVTVSS | high polyreactivity
QVQLVDSVGRLVQAGGSLRLSCAASGSTFVGYAMGWYRHAPGKEREMDADIDSIGGSTYYADSVKGRFTISRDNAKNTVYLQMNILKPEDTAVYYCAARRYDTALVLYDYWGQGTQVTVSS | low polyreactivity
QVQLVDSVGVLVQAGGSLRLSCAASGSIFYRNVMGWYRPAPGKERELVATISRGGTTNYADSVKGRFTISRDNAKNTVYLQMNSLKPEDTAVFYCAAPIGDVYVGIGYDSWGQGTQVTVSS | low polyreactivity
QVQLVDTGGGLVQAGGSLRLSCAASGLTFQQYAMGWYRQAPRKERELVAAITSDGASTNYADSVKGRFTNSRDNAKNTVYLQMNSLKPEDCAVYYCAAGRRSRQYRYVYWGQGTQVTVSS | high polyreactivity
QVQLVEAGGGLVLAGGSLRLSCAASGIIFVSYAMGWSRQAPGKERELVASISWSGGRTYYADSVKARFTISRDNAKNTVYLQMNSLKPEDTAVYFCAAAYRTRSGVRRYPWFNYWGQGTQVTVSS | high polyreactivity
QVQLVEAGGGLVQAGGSLRLSCAASGITFGDNAMGCYRQAPGKERELVAAITLSDVDTYADSVKGRFTISRDNAKNTVYLQMNSMKPEDTAVYYCAADYDFFSLYLYDYCGQGTQVTVSS | low polyreactivity
QVQLVEAGGGLVQAGGSLRLSCAASGNTLYGNAMGWYLQAPGKERELVAAISWSGGSTSYADSVKGRFTISRDNAENTVYLQMNSLKPEDTAVYYCATQGFYKDYSRYDYWGQGTQVTVSS | low polyreactivity
QVQLVEAGGGLVQAGGSLRLSCAASGRTFRYYAMRWYRQATGKERELVAAITTGSSTYYADSVKGRFTISRDNAKNTVYLQMNSLKPEDTAVYYCAADHLYWGLEYESWGQGTQVTVSS | low polyreactivity
QVQLVEAGGGLVQAGGSLRLSCAPSGFICYYYGMGWYRQAPGKDREVVASIRSGGSTNYADSVKGRFTISRDNAKNTGYLQMNWLKPEDTAVYNCAASLLNRISNYDYWGQGTQVTVKS | high polyreactivity
QVQLVEAGGGLVQAGGSLRLSCATSGGIFPPNAMGWYRQAPGKERELVASISSDGSTNYADSVKGRFTISRDNAKNTFYLQMISLKPEDTAVYFCAADSTTTWARLHVRRYYYWGQGTQVTVSS | low polyreactivity
QVQLVEAGGGLVQAGVSLRLSCAASGSIFGYNAMGWYRQAPGKERELVAAISRRGTRTYYADSVKGRFTISRDTAKNTVYLQMNSLKPEDTAVYYCNASPSLDYDYWGQGTQVTVSS | high polyreactivity
QVQLVEAGLGLVQAGGSLRLSCAASGFIFVANAMVWYRQAPGKERELVAAISFSSTSTRYADSVKGRFTISRDNAKNTVYLQMNSLKPEDTAVYYCAVDLTFSEFDYWGQGTQVTVSS | low polyreactivity
QVQLVEAGVGLVQAVGSLRLSCAASGYIFVVNAMGWYRQAPGKERELVASITWSGDNTYYADSVKGRFTISRDNAKNTVYLQMNSLKPEDTAVYYCAATIWIAYRGWYSDYNYWGQGTQVTVSS | low polyreactivity
QVQLVEKGGGLVQAGGSLRLSCAPSGGLFSKNAMGCYRQAPGKVRELVAGISSGGTTYYADSVKGRFTISRDNAKNTGYLQMNSLKPEDSAVYYCAVPYYRRLGPLNDSWGQGTQVTVSS | low polyreactivity
QVQLVEPGGGLVHAGGSLRLSCAASGRIYYVYAMGWYRQAPGKERELVAGIRSGGSTNYADSVKGRFTISRDNAKNTVYLQMNSLNPEDTAVYYCAVQSYGALSPQLVYRRYDYWGQGTQVTVSS | high polyreactivity
QVQLVESAAGLVQAGASLRLSCAPSGRIYRYYAMGWYRQAPGKDRELVAAISSSGGSTYYADSVKGRFSISRDNAKNTVYLQKNSLKPEDTAVYYCAARKASGRFGYWGQGTQVTVSS | high polyreactivity
QVQLVESAAGLVQAGGCLRLSCAASGRIFGYYAMGGYRKAPGKERELVAAITSGGGTYYADSVKGRFTNSRDNAKNTVYLQMNSLKPEDTAVYFCAADDYFHDDYCGQGTQVTVSS | high polyreactivity

Sequence | polyreactivity (PSR sort gate)
QVQLVESAAGLVQAGGRLRLSCAASGYTFSNYAMGWSRQAPGKERELVAAISRSGGSTYYADSVKGRFTISRDNAKNTVYLQMNSLNPVDTAVYYCAASRSGTYDWGLGTQVTVSS | high polyreactivity
QVQLVESAAGLVQAGGSLRLSCAASGRIFRYNTMGWYRQAPGKESELVAAITSGVRTNYADSVKGRFTISRDNAKNTVYLQMNSLKPEDTAVYYCAADPYWFFPNYDSWGQGTQVTVSS | low polyreactivity
QVQLVESAAGLVQAGGSLRLSCAASGRISHRNAMGWSRQAPGKERELVAAITSGGSTNYADSVKGRFTISRDNAKNTVYLQMNSLKPEDTAVYYCAARRLPSTWYIYWGQGTQVTVSS | low polyreactivity
QVQLVESAAGLVQAGGSLRLSCAASGSTFYRYEMGWYRQAPGKERELVATNTSGGSSTYYADSVKGRFTISRDNAKNTVYLQMNSLKPEDTAVYYCAKVYTYSGVNLSSISTPYGYWGQGTQVTVSS | high polyreactivity
QVQLVESAAGLVQAGGSLRLSCAPSGSTFYLYDMGWYRQAPGKEREFVATITSGTSTTYADSVKGRFTISRDNAKNTVYLQMNSLKPEDTAVYYCNATDVGIITVGYGHGGYYWGQGTQVTVSS | low polyreactivity
QVQLVESAGALVQAGGSLRLSCAASGPTFSHNAMGWDRQAPGKERELVASIRSGGLTDYADSVKGRFTISRDNAKNTVYLQMTSLKPEDSAVFYCIAEGVWWSTRYDSWGQGTQVTVSS | low polyreactivity
QVQLVESAGGIVQAGGSLRLSCAASESIFETYDMGCYRQAPGTERELVAAITLSGGSTYYADSVKGRFTISRDNAKNTVYLQMNSLKPEDTAVYYCAADDSGVKVWEGDYWGQGTQVTVSS | low polyreactivity
QVQLVESAGGLVLAGGSLRLSCAASGRIFARNAMGWYRQAAGKEREFVAGITWSGSSTYYADSVKARFTISRDNAKNTVYLQMNSLKPEDTAVYYCAVDNYVGSLRIDHDYWGLGTQVTVSS | low polyreactivity
QVQLVESAGGLVQAAGSLRLSCDASGFTTYYNAMGWYRQAPGKERELVAAISSSGGSTNYADSVKGRFTISRDNAKNTVYLQMNSLKPEDTAVYYCAARLYGWYYGGYTRYDYWGQGTQVTVSS | high polyreactivity
QVQLVESAGGLVQAGGRLRLSCAASGIIFEQYAMGSYRQAPGKERELVAAISSGCTTYADSVKGRFTISRDNAKNTVYLQMNSLTPEDTAVYYGNADLSWDGPDWSDYEYDYWGQGTQVTVSS | low polyreactivity
QVQLVESAGGLVQAGGRLRLSCAAYGFTFNKYAMGWSRQAPGKEREVVAYISSGDRTYYADSVKGRFTISRDNAKNTVYLQMNSLKPEDTAVYYCNAPYRIILENNNYWGHGTQVTVSS | high polyreactivity
QVQLVESAGGLVQAGGSHRLSCAASGITFYRYVMARYRQAPGKERELVAAITSGGNTYYADSVKGRFTISRDNAKNTFYLQMNRLKPDDTAVYYCAAYFSGPFDYWGQGTQVTVSS | high polyreactivity
QVQLVESAGGLVQAGGSHRLSFAATGRIFGPNTMGWYRQAPGKERDLVATITGGGGTNYADSVKGRFRISRVNAKYTDYLQMNSLKPVDTAVYYCAADYGGAYEYGYWGQGTQVTVSS | low polyreactivity
QVQLVESAGGLVQAGGSLPLSCAASGFTFISNAMGWYRQSPAKERELVAAISSSGGRTYYAVSVKGRFTISRDNAKNTVYLQMNSVKPEDTAVYYSNADRSLLYSRKIEYDYWGQGTKVTVSS | low polyreactivity
QVQLVESAGGLVQAGGSLRLICAASGSILQPYAMGWYRQAPGKERELVAYISYSGASTYYADSVKGRFTISRDNPKNTVYLQLNSLKPEDPAVYYCNARYWYHYLTYDYSGQGTQVTVSS | high polyreactivity
QVQLVESAGGLVQAGGSLRLICAATGLNLYVYVMGWYRQAPGKERELVAAITWSVSRTYYADSVKGRFTISRDNAKNTVYLQMNSLKPEDTAVYYCAARIPSDGYYYWGQGTQVTVSS | high polyreactivity
QVQLVESAGGLVQAGGSLRLRSAASGSTIWHNAMGWYRHAPGKERELVAGISGSGGSTYYADSVKGRFTISRDNAKNTVYLEMNSMKPDDTAVYYCATDGRSRVDGVRRGPYDYWGQGTHVTVSS | low polyreactivity
QVQLVESAGGLVQAGGSLRLSCAASARTFSAYSMGWYRQAPGKERELVAAISRRGRSTYYADSVKGRFTISRDNAKNTVYLQMTSLKPEDTAVYYCAADVYKQYGYYYWGLGTQVTVSS | high polyreactivity
QVQLVESAGGLVQAGGSLRLSCAASGFIFGGNAMGWYRQAPGKERELVAAITARSGSTYYADSVKGRFTISRDNAKNTVYLQMNSLKPEDTAVYYCATPVYRSTYEYDYWGQGTQVTVSS | low polyreactivity
QVQLVESAGGLVQAGGSLRLSCAASGFIFSRNAMGWYRQAPGKERELVAVISTSGGSTYYADSVKGRFTISRDNAKNTVYLQMNSLKPEDTAVYYCAARRTRGYEYWGKGTQVTVSS | high polyreactivity
QVQLVESAGGLVQAGGSLRLSCAASGFTFGDNAMGWYRQAPGKERELVAAITSSGSTNYADSVKGRFTISRDNAKNTVYLQMNSLKPEDTAVYYCNAEDSVDAPVYKDLGSEYDSWGQGTQVTVSS | low polyreactivity
